B1: yeast-displayed wild-type human IL-11 [human] / soluble human IL-11 receptor extracellular domain, his-tagged [human] (parent complex)
chain 1: PGPPPGPPRVSPDPRAELDSTVLLTRSLLADTRQLAAQLRDKFPADGDHNLDSLPTLAMSAGALGALQLPGVLTRLRADLLSYLRHVQWLRRAGGSSLKTLEPELGTLQARLDRLLRRLQLLMSRLALPQPPPDPPAPPLAPPSSAWGGIRAAHAILGGLHLTLDWAVRGLLLLKTRL
chain 2: SPCPQAWGPPGVQYGQPGRSVKLCCPGVTAGDPVSWFRDGEPKLLQGPDSGLGHELVLAQADSTDEGTYICQTLDGALGGTVTLQLGYPPARPVVSCQAADYENFSCTWSPSQISGLPTRYLTSYRKKTVLGADSQRRSPSTGPWPCPQDPLGAARCVVHGAEFWSQYRINVTEVNPLGASTRLLDVSLQSILRPDPPQGLRVESVPGYPRRLRASWTYPASWPCQPHFLLKFRLQYRPAQHPAWSTVEPAGLEEVITDAVAGLPHAVRVSARDFLDAGTWSTWSPEAWGTPSTGTIPKEIPAWGQLHTQPEVEPQVDSPAPPRPSLQPHPRLLDHRDSVEQVAVLA

Variants of: B1
Assay: yeast display titration (flow cytometry); parent: 8.2 nM

Row | Kd [nM] | Variant
1 | 0.19 | chain 1 D19G, chain 1 T21I, chain 1 L57P, chain 1 G62R, chain 1 G71D
2 | 0.42 | chain 1 L57P, chain 1 G62R
3 | 0.22 | chain 1 T21I, chain 1 L57P, chain 1 G62R
